As a reminder, the EC50 is the midpoint of the concentration-response curve. A high value points to a less potent agent.

Results on eight molecules are retold here after US20250179210A1 (Merck KGaA, published 2025).

In experiment [1] the target is T1, human CEACAM5 expressed on human cancer cell lines (MKN-45, NCI-H441, SK-CO-1, SNU-16, LS174T) (human, UniProt P06731 35-685).
T1 construct: Endogenous protein on cells; also called MKN45 cell line expressing human CEACAM5; CEACAM5-positive cell lines
T1 sequence: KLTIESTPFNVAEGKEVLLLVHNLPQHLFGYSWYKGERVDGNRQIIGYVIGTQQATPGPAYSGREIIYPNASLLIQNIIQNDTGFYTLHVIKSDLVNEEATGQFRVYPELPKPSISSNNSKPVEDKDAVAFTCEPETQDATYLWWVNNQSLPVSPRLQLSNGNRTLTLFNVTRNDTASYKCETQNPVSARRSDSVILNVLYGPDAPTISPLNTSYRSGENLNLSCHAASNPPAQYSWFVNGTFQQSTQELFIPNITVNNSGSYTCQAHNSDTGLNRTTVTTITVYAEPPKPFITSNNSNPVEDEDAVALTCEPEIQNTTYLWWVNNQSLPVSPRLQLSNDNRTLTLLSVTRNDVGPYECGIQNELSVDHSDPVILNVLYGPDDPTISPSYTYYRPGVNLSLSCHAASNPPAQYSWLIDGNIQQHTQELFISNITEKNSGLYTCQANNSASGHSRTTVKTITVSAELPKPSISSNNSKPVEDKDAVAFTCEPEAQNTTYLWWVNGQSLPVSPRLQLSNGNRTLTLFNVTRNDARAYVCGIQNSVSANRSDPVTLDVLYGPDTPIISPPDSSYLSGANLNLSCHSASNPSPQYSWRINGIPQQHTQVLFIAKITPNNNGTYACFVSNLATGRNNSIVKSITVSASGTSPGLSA
Description: binding to MKN-45 cells.

Experiment [2] deals with T1, human CEACAM5 expressed on human cancer …. Description: cell-based or functional assay.
Experiment [3] shares this target. Description: cell-based or functional assay. The source holds these as a separate data set.
The target is the same in experiment [4]. Description: cell-based or functional assay. This is another data set of the same source.
Experiment [5] shares this target. Description: cell-based or functional assay. The source holds these as a separate data set.
Experiment [6] shares this target. Description: cellular binding on MKN45 cells (FIG. 2).
For experiment [7] the target is unchanged. Description: flow cytometry on MKN-45 cells, antibody titrated. On the technique in general: A flow cytometer gives signals particle by particle.

Where two headings read alike, the source gives them in different places.

B1: Variant 1 (VH1.00/VL1.00) (antibody, V domains shown)
VH: EVQLQESGPGLVKPSQTLSLTCTVSDGSVSRGGYYLTWIRQHPGKGLEWIGYIYYSGSTYFNPSLRSRLTMSVDTSKNQFSLKLSSVTAADTAVYYCARGIAVAPFDYWGQGTLVTVSS
VL: ETTLTQSPATLSVSPGERATLSCRTSQSVRSNLAWYQQKPGQAPRLLIYAASTRATGIPARFSGSGSGTEFTLTIGSLQSEDFAVYFCQQYTNWPFTFGPGTKVEIKR
notes: also called optimized antibody Variant 1
Regarding B1, the binding result in experiment [1] was “binds”.

B2: Variant 6 (VH1.02/VL1.00) (antibody, V domains shown)
VH: EVQLQESGPGLVKPSQTLSLTCTVSDGSVSRGGYYLTWIRQHPGKGLEWIGYIYYSGSTYFNPSLRSRVTMSVDTSKNQFSLKLSSVTAADTAVYYCARGIAVAPFDYWGQGTLVTVSS
VL: ETTLTQSPATLSVSPGERATLSCRTSQSVRSNLAWYQQKPGQAPRLLIYAASTRATGIPARFSGSGSGTEFTLTIGSLQSEDFAVYFCQQYTNWPFTFGPGTKVEIKR
notes: also called optimized antibody Variant 6
With B2, the binding result in experiment [1] is listed as “binds”.

B3: ADC1-M (conjugate of mAb1-M with DL1) (antibody, human IgG1, kappa, L234A L235A)
heavy: EVQLQESGPGLVKPSQTLSLTCTVSDGSVSRGGYYLTWIRQHPGKGLEWIGYIYYSGSTYFNPSLRSRVTMSVDTSKNQFSLKLSSVTAADTAVYYCARGIAVAPFDYWGQGTLVTVSSASTKGPSVFPLAPSSKSTSGGTAALGCLVKDYFPEPVTVSWNSGALTSGVHTFPAVLQSSGLYSLSSVVTVPSSSLGTQTYICNVNHKPSNTKVDKRVEPKSCDKTHTCPPCPAPEAAGGPSVFLFPPKPKDTLYITREPEVTCVVVDVSHEDPEVKFNWYVDGVEVHNAKTKPREEQYNSTYRVVSVLTVLHQDWLNGKEYKCKVSNKALPAPIEKTISKAKGQPREPQVYTLPPSREEMTKNQVSLTCLVKGFYPSDIAVEWESNGQPENNYKTTPPVLDSDGSFFLYSKLTVDKSRWQQGNVFSCSVMHEALHNHYTQKSLSLSPG
light: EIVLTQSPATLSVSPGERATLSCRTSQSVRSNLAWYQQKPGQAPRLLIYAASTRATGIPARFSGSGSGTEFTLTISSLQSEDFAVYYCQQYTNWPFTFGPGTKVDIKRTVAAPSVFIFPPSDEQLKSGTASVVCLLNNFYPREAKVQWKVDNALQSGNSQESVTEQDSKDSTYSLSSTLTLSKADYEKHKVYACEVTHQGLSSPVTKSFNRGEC
modifications: DL1 by interchain cysteine conjugation; DL1 (maleimido-b-glucuronide-exatecan) by interchain cysteine conjugation; DAR 8.16
Take B3: in experiment [2], the “SPECIFICITY FACTOR (IC50 in CEACAM5-negative MDA-MB-231 divided by IC50 in MKN-45)” value amounted to 201 fold, the “SPECIFICITY FACTOR (IC50 in CEACAM5-negative MDA-MB-231 divided by IC50 in SK-CO-1)” value worked out at 874 fold and the “SPECIFICITY FACTOR (IC50 in CEACAM5-negative MDA-MB-231 divided by IC50 in SNU-16)” value is 242 fold. In experiment [3], the “IC50 [M], cell viability assay (Cell Titer-Glo, 6 days), LS174T cells” value (“IC50 [M], cell viability assay … LS174T cells” for short) amounted to 6e-10 M; the “IC50 [M], cell viability assay (Cell Titer-Glo, 6 days), MKN-45 cells” value (“IC50 [M], cell viability assay … MKN-45 cells” for short) was 5.2e-10 M; the “IC50 [M], cell viability assay (Cell Titer-Glo, 6 days), SK-CO-1 cells” value (“IC50 [M], cell viability assay … SK-CO-1 cells” for short) was 7.6e-11 M; the “IC50 [M], cell viability assay (Cell Titer-Glo, 6 days), SNU-16 cells” value (from here on “IC50 [M], cell viability assay … SNU-16 cells”) worked out at 3.6e-10 M.

B4: ADC2-M (conjugate of mAb2-M with DL1-M) (antibody, human IgG1, kappa, L234A L235A)
heavy: EVQLQESGPGLVKPSQTLSLTCTVSDGSVSRGGYYLTWIRQHPGKGLEWIGYIYYSGSTYFNPSLRSRVTMSVDTSKNQFSLKLSSVTAADTAVYYCARGIAVAPFDYWGQGTLVTVSSASTKGPSVFPLAPSSKSTSGGTAALGCLVKDYFPEPVTVSWNSGALTSGVHTFPAVLQSSGLYSLSSVVTVPSSSLGTQTYICNVNHKPSNTKVDKRVEPKSCDKTHTCPPCPAPEAAGGPSVFLFPPKPKDTLYITREPEVTCVVVDVSHEDPEVKFNWYVDGVEVHNAKTKPREEQYNSTYRVVSVLTVLHQDWLNGKEYKCKVSNKALPAPIEKTISKAKGQPREPQVYTLPPSREEMTKNQVSLTCLVKGFYPSDIAVEWESNGQPENNYKTTPPVLDSDGSFFLYSKLTVDKSRWQQGNVFSCSVMHEALHNHYTQKSLSLSPG
light: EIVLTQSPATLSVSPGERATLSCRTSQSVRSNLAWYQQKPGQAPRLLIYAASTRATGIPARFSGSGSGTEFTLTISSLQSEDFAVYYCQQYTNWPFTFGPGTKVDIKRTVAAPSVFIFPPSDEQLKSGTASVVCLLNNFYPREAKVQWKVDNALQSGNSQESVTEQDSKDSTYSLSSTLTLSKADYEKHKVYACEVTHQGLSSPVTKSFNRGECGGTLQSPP
modifications: MTG tag GGTLQSPP at the C-terminus is a conjugation site for DL1-M; DL1-M (NH2-GGG-b-glucuronide-exatecan) coupled by microbial transglutaminase; DAR 3.86 for the whole antibody; residues carrying the drug not stated
B4: in experiment [2], the “SPECIFICITY FACTOR (IC50 in MDA-MB-231, set to 100 nM, divided by IC50 in MKN-45)” value was > 167 fold; the “SPECIFICITY FACTOR (IC50 in MDA-MB-231, set to 100 nM, divided by IC50 in SK-CO-1)” value was > 632 fold; the “SPECIFICITY FACTOR (IC50 in MDA-MB-231, set to 100 nM, divided by IC50 in SNU-16)” value was > 207 fold. Moreover, in experiment [3], the “IC50 [M], cell viability assay … LS174T cells” value was found to be 8.5e-10 M; the “IC50 [M], cell viability assay … MKN-45 cells” value came to 1.2e-09 M; the “IC50 [M], cell viability assay … SK-CO-1 cells” value worked out at 1.1e-10 M; the “IC50 [M], cell viability assay … SNU-16 cells” value is 5.1e-09 M.

B5: ADC1 (mAb1-glucuronid-exatecan) (antibody, human IgG1, kappa)
heavy: EVQLQESGPGLVKPSQTLSLTCTVSDGSVSRGGYYLTWIRQHPGKGLEWIGYIYYSGSTYFNPSLRSRVTMSVDTSKNQFSLKLSSVTAADTAVYYCARGIAVAPFDYWGQGTLVTVSSASTKGPSVFPLAPSSKSTSGGTAALGCLVKDYFPEPVTVSWNSGALTSGVHTFPAVLQSSGLYSLSSVVTVPSSSLGTQTYICNVNHKPSNTKVDKRVEPKSCDKTHTCPPCPAPPVAGPSVFLFPPKPKDTLMISRTPEVTCVVVDVSHEDPEVKFNWYVDGVEVHNAKTKPREEQYNSTYRVVSVLTVLHQDWLNGKEYKCKVSNKALPSSIEKTISKAKGQPREPQVYTLPPSREEMTKNQVSLTCLVKGFYPSDIAVEWESNGQPENNYKTTPPVLDSDGSFFLYSKLTVDKSRWQQGNVFSCSVMHEALHNHYTQKSLSLSPG
light: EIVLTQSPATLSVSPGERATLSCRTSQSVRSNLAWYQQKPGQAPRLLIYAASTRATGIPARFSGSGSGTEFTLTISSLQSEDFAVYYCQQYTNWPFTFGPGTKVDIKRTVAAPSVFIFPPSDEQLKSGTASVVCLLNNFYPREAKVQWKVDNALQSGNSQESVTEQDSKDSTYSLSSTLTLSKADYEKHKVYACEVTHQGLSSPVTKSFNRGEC
modifications: drug-linker DL1 on the reduced interchain cysteine; drug-linker DL1 (maleimido-beta-glucuronide-exatecan) on sulfur of reduced interchain cysteines; DAR 7.9 for the whole antibody
As for B5, in experiment [4], the “IC50 [M], cell viability assay … LS174T cells” value is 3.8e-10 M; the “IC50 [M], cell viability assay … MKN-45 cells” value is 6.2e-10 M; the “IC50 [M], cell viability assay … SK-CO-1 cells” value was 8.5e-11 M; the “IC50 [M], cell viability assay … SNU-16 cells” value was 3.2e-10 M. For the same molecule, the “fold higher potency than ADC SAR DM4 against SK-CO-1 cells (viability assay)” value in experiment [5] was 2.9 fold.

B6: ADC2 (mAb1-AAN-exatecan) (antibody, human IgG1, kappa)
heavy: EVQLQESGPGLVKPSQTLSLTCTVSDGSVSRGGYYLTWIRQHPGKGLEWIGYIYYSGSTYFNPSLRSRVTMSVDTSKNQFSLKLSSVTAADTAVYYCARGIAVAPFDYWGQGTLVTVSSASTKGPSVFPLAPSSKSTSGGTAALGCLVKDYFPEPVTVSWNSGALTSGVHTFPAVLQSSGLYSLSSVVTVPSSSLGTQTYICNVNHKPSNTKVDKRVEPKSCDKTHTCPPCPAPPVAGPSVFLFPPKPKDTLMISRTPEVTCVVVDVSHEDPEVKFNWYVDGVEVHNAKTKPREEQYNSTYRVVSVLTVLHQDWLNGKEYKCKVSNKALPSSIEKTISKAKGQPREPQVYTLPPSREEMTKNQVSLTCLVKGFYPSDIAVEWESNGQPENNYKTTPPVLDSDGSFFLYSKLTVDKSRWQQGNVFSCSVMHEALHNHYTQKSLSLSPG
light: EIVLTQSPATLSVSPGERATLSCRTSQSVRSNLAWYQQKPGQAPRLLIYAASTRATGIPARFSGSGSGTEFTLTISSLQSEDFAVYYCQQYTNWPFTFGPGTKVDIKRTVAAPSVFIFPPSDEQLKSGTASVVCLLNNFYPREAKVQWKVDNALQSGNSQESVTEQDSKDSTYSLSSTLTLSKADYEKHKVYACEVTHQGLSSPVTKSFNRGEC
modifications: drug-linker DL2 on the reduced interchain cysteine; drug-linker DL2 (legumain-cleavable Ala-Ala-Asn linker, exatecan) on reduced interchain cysteines; DAR 7.6 for the whole antibody
Take B6: in experiment [4], the “IC50 [M], cell viability assay … LS174T cells” value is 2.8e-10 M; the “IC50 [M], cell viability assay … MKN-45 cells” value came out at 4.7e-10 M; the “IC50 [M], cell viability assay … SK-CO-1 cells” value turned out to be 6.9e-11 M; the “IC50 [M], cell viability assay … SNU-16 cells” value turned out to be 2.8e-10 M. In addition, in experiment [5], the “fold higher potency than ADC SAR DM4 against SK-CO-1 cells (viability assay)” value was 2.7 fold.

B7: hmn-14 (hMN14, antibody of labetuzumab govitecan) (antibody, human IgG1, kappa, V domains shown)
VH: EVQLVESGGGVVQPGRSLRLSCSASGFDFTTYWMSWVRQAPGKGLEWIGEIHPDSSTINYAPSLKDRFTISRDNAKNTLFLQMDSLRPEDTGVYFCASLYFGFPWFAYWGQGTPVTVSS
VL: DIQLTQSPSSLSASVGDRVTITCKASQDVGTSVAWYQQKPGKAPKLLIYWTSTRHTGVPSRFSGSGSGTDFTFTISSLQPEDIATYYCQQYSLYRSFGQGTKVEIKR
The molecule B7 registered a concentration for a half-maximal effect (EC50) in experiment [6] of 11.8 nM.

B8: Rituximab (antibody, human IgG1, kappa, V domains shown)
VH: QVQLQQPGAELVKPGASVKMSCKASGYTFTSYNMHWVKQTPGRGLEWIGAIYPGNGDTSYNQKFKGKATLTADKSSSTAYMQLSSLTSEDSAVYYCARSTYYGGDWYFNVWGAGTTVTVSA
VL: QIVLSQSPAILSASPGEKVTMTCRASSSVSYIHWFQQKPGSSPKPWIYATSNLASGVPVRFSGSGSGTSYSLTISRVEAEDAATYYCQQWTSNPPTFGGGTKLEIKR
notes: also called mAb4-M; anti-CD20 control antibody
In the case of B8, the binding result in experiment [7] is “no binding (tested: 2000 nM)”.
